Measurements: patent US20110294728, “Antiviral Polypeptides” (published 2011)

B1: 19/36-mer DNA/DNA primer/template (HIV-1 PBS) (dsDNA)
DNA 1: TCCCTGTTCGGGCGCCACT
DNA 2: TGTGGAAAATCTCATGCAGTGGCGCCCGAACAGGGA
B2: 19/36-mer (printed 18/36) DNA/DNA primer/template, unlabelled (dsDNA)
DNA 1: TCCCTGTTCGGGCGCCACT
DNA 2: TGTGGAAAATCTCATGCAGTGGCGCCCGAACAGGGA

What was measured:
[1] = molecular target: HIV-1 reverse transcriptase p66/p51 heterodimer (HIV-1 (BH10), UniProt P03366;P03366 P03366:600-1159,P03366:600-1039); experiment: steady-state fluorescence quenching; 50 mM Tris-HCl pH 8.0, 50 mM KCl, 10 mM MgCl2, 1 mM DTT, 25 C; conditions: tags: recombinant from E. coli; His-tagged and untagged preparations described, form used in the titration not specified; label: 6-FAM at primer 3' end; primer/template with 5' single-stranded template overhang
[2] = molecular target: HIV-1 reverse transcriptase p66/p51 in complex with PAW peptide (HIV-1 (BH10), UniProt P03366;P03366 P03366:600-1159,P03366:600-1039); experiment: steady-state fluorescence quenching; 10 uM PAW; 50 mM Tris-HCl pH 8.0, 50 mM KCl, 10 mM MgCl2, 25 C; conditions: protein: synthetic; label: 6-FAM at primer 3' end; primer/template with 5' single-stranded template overhang
[3] = molecular target: HIV-1 reverse transcriptase p66/p51 in complex with FITC-PAW (HIV-1 (BH10), UniProt P03366;P03366 P03366:600-1159,P03366:600-1039); experiment: quenching of FITC-PAW pre-bound to RT on titration with unlabelled p/t; 10 mM MgCl2, 25 C; conditions: tags: PAW with C-terminal Cys-FITC; primer/template with 5' single-stranded template overhang

Binder	Kd [1] [nM]	Kd [2] [nM]	Kd [3] [nM]
B1	22	99	–
B2	–	–	66.5
